Measurements published in the RNAGym collection of RNA variant scans (doi:10.7554/elife.90254).

B1: OR4K15 (parent)
chain: GUUAACGGUCAUAGGCCAUGGAAACUAGGAGCACCAUUUCGCUGCCAGUGAAGAAAUGAACAAAGAAAAUCUGGGCCAGGCAGGCAUCAAAAGAAAUAGUCUUGCGCUCAACCAGAAAGUCUGUAAUCAUUUUAAGGGUA

Variants of: B1
Assay: self-cleavage, relative activity (ratio to wild type); higher = more cleavage; in vitro, sequencing; the parent is a self-cleaving ribozyme

Variant | self-cleavage
A52G A118U | 0.59
G53U U122C | 2
A54G A98U | 2.61
A54G A125G | 0.81
A55C A129G | 1.2
A54G C81U | 0.19
A55G G106U | 0.02
A55G U132A | 1.61
A55G U132C | 1.46
A55G A116U | 0.27
A56C A69G | 1.24
A54U A64G | 1.55
A52G G79A | 0.27
A52G U122C | 1.45
A55G C76A | 0.55
A54C A60U | 1.33
A55U U102C | 1.73
A55U U102A | 1.44
A54U U102C | 1.59
A55G A92U | 1.65
A55U A59U | 1.92
A52G A111G | 0.03
A54U A116G | 0.83
A52G A126G | 0.47

Variant | self-cleavage
A54G A92G | 1.37
A56G A67G | 0.97
A55G G93U | 1.76
A52G A140G | 1.63
A52G A140U | 1.15
A52G C88A | 1.78
A56G A90G | 1.03
A55U A56C | 2.18
A55U A89U | 0.56
A56C A59G | 1.51
A55G U127A | 1.65
A54G A89G | 1.55
A54G A89U | 1.61
A55U U124A | 1.07
A55U A62G | 0.23
A55G A82G | 0.83
A55G A82U | 0.22
A55G U57C | 1.13
A55G U57G | 1.41
A56G A66G | 0.93
A56G A66C | 1.76
A55G U72A | 0.19
A55G U72C | 0.28
A54G A69G | 1.1

Variant | self-cleavage
A54G A69C | 1.39
A52G U120A | 2.19
A55G A59U | 1.13
A55U A111G | 0.02
A55G A95C | 1.02
A54G G106U | 0.02
A54G A111G | 0.03
A54G A111U | 0.06
A55G C77U | 1.41
A52U U103C | 1.36
A54G G123A | 1.14
A54G G136U | 2.55
A55G A110C | 0.2
G53A A60G | 1.53
A55U A82G | 0.61
A54U G74U | 0.02
A52G A117G | 1.48
A52G A117C | 0.47
A54G A110G | 0.21
A54G A110C | 0.2
A54G A68U | 1.91
A54G U120C | 0.3
A54G U120A | 1.89
A52U U132C | 1.06

Variant | self-cleavage
A54G C112G | 0.01
A54G A140G | 2.22
A54G U124C | 0.75
A55U A98G | 0.19
A55U A98U | 2.38
A52G G138U | 2.54
A54C U72A | 0.43
A52U A111G | 0.01
A54U A69G | 0.53
A55C G106A | 0.02
A52G U132C | 1.84
A52G U132A | 0.88
A52G G75C | 0.13
A52U U131A | 1.49
A55G G119C | 1.03
A52U A91G | 1.13
A52G A129C | 0.65
A55G C109U | 0.82
G53A A91G | 1.6
A54G U122A | 1.72
A54G U122C | 1
A55U | 1.13
A55G | 1.06
A55C | 0.94

Variant | self-cleavage
A52G G106A | 0.01
A52G G106C | 0.02
A54G A78U | 0.26
A55G U124C | 0.5
A55G U124A | 0.97
A56G A89U | 1.09
A54U A63G | 1.93
A54G | 1.06
A54U | 1.2
A54C | 1.41
A55U U120C | 0.86
A52U A94G | 1.52
A52U A67G | 0.87
A54G A129C | 0.76
A54G A129G | 0.58
A54U U131C | 1.11
A55G A86G | 1.17
A55U A114G | 0.21
A55U A114U | 0.03
A55U A96C | 0.74
A52G U108C | 0.02
A52G U108G | 0.03
A52G U108A | 0.02
A55G U130A | 0.52

Variant | self-cleavage
A52G U72C | 0.27
G53A C128A | 0.93
A54G U130C | 0.76
A54G U130A | 1.11
A55G A94C | 1.34
A54G G84C | 0.61
A54G C128U | 1.08
A55G U120C | 0.85
A54U A98G | 0.2
A54G A116U | 0.27
A54G A116G | 0.75
G53U U100C | 2.06
A55U A126G | 1.47
G53A A118C | 0.99
A54G U72A | 0.19
A54G U72C | 0.23
A55U U139C | 0.56
A52G C71G | 0.39
A52U G79A | 0.37
A54U G106A | 0.02
A54U U108C | 0.01
A55U U131C | 2
A55G A114G | 0.32
A55G G115A | 0.14

Variant | self-cleavage
A55G G115U | 0.03
A56G | 0.72
A56C | 1.33
A54G A82G | 0.61
A54G A82U | 0.26
A54G A64U | 1.67
A55U A64G | 1.76
A56G A92G | 1.68
A56G A92U | 2.54
A52G U103A | 0.59
A55C G79A | 0.49
A55G U108G | 0.03
A56G A62U | 2.29
A56G A78U | 0.2
A56G A78C | 0.22
A56G A78G | 0.25
A52U A126G | 1.31
A54G A91G | 1.18
A54G A91C | 1.05
A55G A129U | 1.43
A52G C112U | 0.01
A54G A86U | 1.71
A54G A117U | 0.91
A54G C105A | 0.06

Variant | self-cleavage
A52U G83A | 1.64
A52G C105A | 0.02
A52U A110G | 0.19
A56G A68C | 2.25
A54C A64G | 1.36
A55C U103A | 0.38
A52U A95G | 1.48
A55G U103C | 1.06
A55G U103A | 0.46
A55G C85U | 1.27
A52G U57A | 1.31
A55U U133A | 1.58
A52G U102C | 2.18
A52G U102A | 0.89
A56G A59G | 1.2
A52U A116G | 1
A55G A91G | 0.98
A54G U139C | 1.68
A55C A110G | 1.02
G53A A117G | 2.26
A54U A134G | 1.32
A54U A135U | 2.01
A52U A82G | 1.09
A52U A82U | 0.2

Variant | self-cleavage
A56C U108C | 0.01
A52G G73A | 0.11
A54G A67U | 2.17
A54U A78C | 0.29
A54U A78U | 0.29
A54U A78G | 0.25
A52G C128A | 0.64
A55C A126G | 1.09
A52G U133A | 2.06
A52U A86G | 1.61
A56C A118G | 0.63
A55G A117G | 0.76
A55U U132C | 2.21
A54U G115U | 0.03
A54U A125G | 0.83
A55G G83A | 0.71
G53A U130C | 1.96
A55G A90G | 0.76
A55G A90U | 2.14
A56G A63U | 1.68
A52G G123A | 0.48
G53U A111G | 0.04
A55G A96U | 1.11
A52U C101U | 0.19

Variant | self-cleavage
A55G C128A | 1.06
A56C U133A | 1.4
A54G A135U | 0.73
A54G A135G | 1.13
A52G C109U | 0.71
G53U A118G | 1.67
A52G U127A | 1.73
A55C A78C | 0.25
A55G U102A | 0.81
A56G A94U | 1.08
A55G A135G | 1.57
A54U U103G | 0.04
A54U U103C | 1.26
A56C A117U | 0.96
A54U A82U | 0.24
A54G C85A | 0.82
A55G U70C | 0.29
A54U U139C | 1.45
A54U U139A | 1.63
A54G A126U | 0.42
A54G A96U | 2.04
A52G A116G | 0.91
A52G A116C | 0.11
G53U A69G | 0.57

Variant | self-cleavage
A52G C113U | 0.14
A54G U132A | 1.73
A52G G104A | 0.04
A54G G75U | 0.12
A54G A66G | 1.51
A52G A125U | 0.86
A52G A125G | 0.37
A52U A140G | 0.56
A54G A62U | 1.14
A54G A62G | 0.92
A54G U100A | 0.57
A55G G74U | 0.1
A54U U70C | 0.53
A54C A95G | 2.18
A55U U57G | 1.54
G53U A114U | 0.19
A52U A54G | 1.25
A54G A63G | 1.55
A55G A126G | 0.33
A55G A126U | 0.86
A52U U122A | 0.96
A52U A59G | 1.48
A52G U100G | 1.16
A54G G104A | 0.09

Variant | self-cleavage
A55U U87C | 1.64
A54G A55C | 1.94
A54G A55G | 0.99
A52G G74A | 0.13
A55G U87C | 0.64
A55G A69U | 0.23
A55G A69G | 0.78
A52U A134U | 1.41
A54G A95G | 1.81
A55G A62U | 1.41
A55G A125G | 0.45
A54U U87C | 1.34
G53U A66U | 1.77
A55U A67G | 1.12
A55U A67U | 1.6
A54U U127C | 0.18
A56G A86U | 1.67
A56G A86G | 0.8
A56G A86C | 1.48
A55C A59U | 1.8
A52G U139C | 2.03
A52G U139G | 1.6
A52G U139A | 1.5
A54G U108C | 0.02

Variant | self-cleavage
A52U A63G | 1.73
A52U G74A | 0.16
A52U A62G | 1.23
A55G A63C | 0.12
A55G U97C | 1.27
A55G U97A | 1.51
A55U A125G | 0.35
A54G U127C | 1.07
A54G A134G | 1.2
A55G A66G | 1.4
A52G G80U | 0.12
A52G U87A | 1.23
A52G U87C | 1.35
A56C A116U | 0.13
A52U U133C | 1.72
A55G A98C | 1.25
A55G A134G | 1.23
A54G A94C | 1.32
A54G A94G | 1.2
A54G A90G | 0.86
A55G A64G | 0.88
A55G A64U | 2.41
A55G A111G | 0.03
A55U U122A | 0.96

Variant | self-cleavage
A52G U130A | 1.08
A52G U130G | 0.81
A52G U130C | 0.75
G53A A90G | 0.74
A52U U124C | 0.48
A55U A92G | 1.36
A55U A92U | 2.65
A55G A89G | 0.59
A55G A89U | 1.55
A55G U131C | 1.63
A52U A64G | 1.71
A54G A59U | 0.71
A54G U57A | 1.26
A55C U57A | 1.84
A52G U97C | 1.07
A52G U97A | 1.33
A52G U97G | 1.31
A54G A56C | 1.4
A54G A56G | 1.01
A52U A129G | 0.81
A54U U100A | 0.59
A52G C121A | 2.07
